Laboratory results as given in the DeepSol protein solubility set.

experiment: soluble on expression in E. coli; label from the status in PepcDB or PDB records

Row | Sequence | soluble on expression in E. coli
1 | MRVQPVTNCEKAVILEALKIGKRFDFRSLEEFRDVKLVVGAEVGTAICTIGNTKVMAAVSAEIAEPSSMRPHKGVINIDVDLSPMANYANEHDRLGSKGMELIRLLELIIRDSRCIDVEALCIRAGKEIWKIRVDVRILDEDGSLLDCACLAAITALQHFRRPNVTLEPHHTLIYSEYEKAPVPLNIYHMPICTTIGLLDKGQIVVIDPTDKETACLDGSIVVACNKRREVCALHQSTNLILSTKQIERCVKLAMARAEALTAVVSDVIKQDQIERSAFKRPDGFAITTPSLILTAGTTASRQIRAPVIKTEPESFTQRSLYQPSVILNENPLSVGSVKQEDVDEETLLAEQLTTIQNSVGQVEVTEKQTVAVSSRKREVEEVNDLLDGLDDDDEEEEVQTMTLGSETVLNDVPMEEAPDAEDSLVNAKKKKKK | not soluble
2 | MGSDKIHHHHHHMKDMTNLDNFEVGFDIPAKPGMDAAEIQTPCLVLDLDALERNVKKMGDYAKAHGMRHRVHGKMHKSVDVAKLQERLGGAVGVCCQKVSEAEVFVRGGIKDVLVSNQVRDPLKIDRLAQLPKLGSRIIVCVDDLANVADLSAAALRHGTELEVLIEIDCGAGRCGVGTTQDVVAIARAVDAAENLKFTGIQAYQGAMQHLDKYEDRKAKLDIAIEMVESAVQGLKAVGLDPELVSGGGTGSYYFEANSGVYNELQCGSYAFMDADYGRILDQNGQRIDKGEWENAMFILTQVMSHAKADKAIVDAGLKAQSVDSGLPFVHGRDDVEYIKCSDEHGVVADPNGVLKVGDKLRLVPGHCDPTANVHDWYVGVRGGKVECVWPVSARGKAY | not soluble
3 | MGSDKIHHHHHHMTKEASRPALDLARQAYEAFKARGLNLNMQRGQPADADFDLSNGLLTVLGAEDVRMDGLDLRNYPGGVAGLPSARALFAGYLDVKAENVLVWNNSSLELQGLVLTFALLHGVRGSTGPWLSQTPKMIVTVPGYDRHFLLLQTLGFELLTVDMQSDGPDVDAVERLAGTDPSVKGILFVPTYSNPGGETISLEKARRLAGLQAAAPDFTIFADDAYRVHHLVEEDRAEPVNFVVLARDAGYPDRAFVFASTSKITFAGAGLGFVASSEDNIRWLSKYLGAQSIGPNKVEQARHVKFLTEYPGGLEGLMRDHAAIIAPKFRAVDEVLRAELGEGGEYATWTLPKGGYFISLDTAEPVADRVVKLAEAAGVSLTPAGATYPAGQDPHNRNLRLAPTRPPVEEVRTAMQVVAACIRLATEEYRAGH | not soluble
4 | KGTYLSEYANFAAALTEGKILLLADLRGFGETTDPAFYTDAKYWNREYRNAMVSMHIGRPIMGQRVVDILTLLDFCSEHEFLKGHPVKVFANGIYGPVAIHAAYLDERINSVEIKHSVKTWKEYIERPMQWDMYSNVLYGALKYYDLPDLIRLSNCPIRFAD | not soluble
5 | HKCDITLQEIIKDLNSLTEQKTLCTELTVTDIFAASKNTTEKETFCRAATVLRQFYSHHEKDTRCLGATAQQFHRHKQLIRDLKRLDRNLWGLAGLNSCPVKEANQSTLENFLERLKTIMREKYSKCSS | soluble
6 | MSLKFEKFICNLRQFTLTNGLKRSIAIISLVDKKGNISKGEVAPLPPWSKETLEEAIRQIDAKKSFILNIDWTIENYRDALMHLHLFPSVQFGIESALLSFLDPLKTYSIPVSALLMGSKKEILAQAKLRLQEGYQIAKLKVSQLSFSDAAKLIHQLKDTFRLRIDVNRAWKTEDSLQFFSEYSLDSFDYVEEPFQNPKELSLFSHPLAVDESFPSNFSLQDLETLCSLKSLIYKPTLQGGMTTCLPVYKWAKQRNIEFVLSSSFESELGLSHLISMAARLKLTSPIGIGTYHFLPQTEGPFLISNGQVNLKNLEGHHHHHH | not soluble
7 | MKEYIAFDIGGTQIKYGIVSEIGRVLKRQTVATEIHLGGEQIIQKLIYVSKKIMNEHTITGIGISTAGIVDINKGIVTGGADHIPGYSTIPIIDRLQEILKVPVSIDNDVNCAAFGEKWNGSGREKDNFIMLTLGTGIGGAIFIDGKLYRGHSFSAGEWGNMLIEEKTFEEVASISGLIRLVSKYKGKGKWNGKRIFELYDKGDREVAQAVGIFFKHLAIGISNLAYIFNPETIIIGGGITDRGNEFLKEVKEEVSKYLNQEIYNNCEIELAQNGNCAGMIGAIYHFLHHHK | not soluble
8 | MENQTKCNISYRRIRIDKKKPPKTALKIKCLFTFSGFQEMLHVDKVDSLQTEKVNIRASGLVEWSCYTFILRLHYDRGTYASFCVARSDSLGCIDLSRDAPIRGTYTEVDQMGLFISIEPTQSIRPGHFFKTYDPKTYYYTLQLLDDSKKIIDEIHLKKHWKHPLVEQINVEQNGLYGTLFKPPGKGPFPAVIFIPGSNGMLESGYAAVLASEGFLTFTFAYFAYKKDLPKLIPDVDIEFFEKPIEYVQNSPYCSGKIGLVGQSFGGLTANYLSTKYHQVSAVVALNCSAAFCRDNAVMKENGKPMETQILDEGMSDFVNQVLRQKPAFRDLYSNLTPTTSIPWARAPKNTAYRIVQCYDDMLVDAVPSIINICGNLRKTGHHVESELVPGGHFLYFPYFPHHGIIYNAQINMLWGFGGECYQHSKSQETTWKKNVEFFKKHLGDVKRIPEWKRESTVTLPVSTKSSKSLQCKL | not soluble
9 | MLRVGPLTIGTLDDWAPSTGSTVSWRPSAVAHTKASQAPISDVPVSYMQAQHIRGYCEQKAKGLDYSRLMVVSCQQPGQCDIRAANYVINAHLRRHDTYRSWFQYNGNGQIIRRTIQDPADIEFVPVHHGELTLPQIREIVQNTPDPLQWGCFRFGIVQGCDHFTFFASVDHVHVDAMIVGVTLMEFHLMYAALVGGHAPLELPPAGSYDDFCRRQHTFSSTLTVESPQVRAWTKFAEGTNGSFPDFPLPLGDPSKPSDADIVTVMMLDEEQTAQFESVCTAAGARFIGGVLACCGLAEHELTGTTTYYGLTPRDTRRTPADAMTQGWFTGLIPITVPIAGSAFGDAARAAQTSFDSGVKLAEVPYDRVVELSSTLTMPRPNFPVVNFLDAGAAPLSVLLTAELTGTNIGVYSDGRYSYQLSIYVIRVEQGTAVAVMFPDNPIARESVARYLATLKSVFQRVAESGQQQNVA | not soluble
10 | MASNFKKANMASSSQRKRMSPKPELTEEQKQEIREAFDLFDADGTGTIDVKELKVAMRALGFEPKKEEIKKMISEIDKEGTGKMNFGDFLTVMTQKMSEKDTKEEILKAFKLFDDDETGKISFKNLKRVAKELGENLTDEELQEMIDEADRDGDGEVSEQEFLRIMKKTSLY | soluble
11 | MTPLVKDIIMSSTRMPALFLGHGSPMNVLEDNLYTRSWQKLGMTLPRPQAIVVVSAHWFTRGTGVTAMETPPTIHDFGGFPQALYDTHYPAPGSPALAQRLVELLAPIPVTLDKEAWGFDHGSWGVLIKMYPDADIPMVQLSIDSSKPAAWHFEMGRKLAALRDEGIMLVASGNVVHNLRTVKWHGDSSPYPWATSFNEYVKANLTWQGPVEQHPLVNYLDHEGGTLSNPTPEHYLPLLYVLGAWDGQEPITIPVEGIEMGSLSMLSVQIGLEHHHHHH | soluble
12 | MAHHHHHHMALLEWARQDATMKSSLELYCGPASKDLMIMDIPANVAVDAYLWEGLLVAESMLEADGTLLVVSPHAFSVRVRRFLQWRFLRAQCAVSEAGAVHYAVCSTVAAGFGDAAVRRDDFPGQLATGKRRPCKWNPYRRPEKRKFVASLRPWFTNAPFVKDALRCSLERERDAQERLRDADDAFFAVAHEMVEKGVHYSHPND | not soluble
13 | EPNRLIKEKSPYLLQHAYNPVDWYPWGEEAFEKARKENKPVFLSIGYSTCHWCHMMAHESFEDEEVAGLMNEAFVSIKVDREERPDIDNIYMTVCQIILGRGGWPLNIIMTPGKKPFFAGTYIPKNTRFNQIGMLELVPRIKEIWEQQHEEVLDSAEKITSTIQEMIKESSG | soluble
14 | MSLLSSEGPIFYVQERIGQNYKPFNCIKFRTMVSNADEVLMQMMETSPQLRQEFESSFKLKKDPRITKIGQFLRITSLDEFPQFWNVLKGDMSVVGPRPLVAEELPKYGDHIEQVLTIRPGITGLWQVSGRNDIPYPRRVQIDLHYVKSRTLWLDLWIILKTIDVVIMPKNNGAYEGHHHHHH | soluble
15 | MIQHTMLKLYWANFTTAQLHHLTSTYPDFLSENVFHQHDMIKRWLTERNSERLWNKYERFKELKLMDIIKEMKKANVSFTTYFDDNYPSLCKEMYDYPYVIFYKGNPQFFNHSHSLAVIGSRNATQYTSQSLNYLFPSFRQLNMAIVSGLARGADSVAHQTALKYLLPTIGVLGFGHCYHYPKATLNLRTKVERNGLVISEYPPFSPISKHKFPERNRLISGLSRGVLITEAEERSGSQITIDCALEQNRNVYVLPGSMFNKMTKGNLRRINEGAQVVIDESSILYDYLF | not soluble
16 | MSDELSVKRHKSDPDESIEEIMPEIRPPLTRTHKIVRDESGKHNLLLILTGSIAVMKAPELISELYEKIGRDRILIKVVTTENAMKLCHIQKLEFDEIVYEDRDEWSMWRERGDKVLHIELRKWADSALIAPLDANTMAKIANGLCDNLVTSIIRAWDLSKPCYFAPAMNTHMWENPLTMQHRTVLKSQLKFKEICPIQKELICGDVGTGAMASIGTIVSLVAALVRDQQAVRIQCG | not soluble
17 | MGHHHHHHSHSKKPYIVTIACTKGGSAKSTNAANIGAFCADHGLRTLLIDTDTQPTLSSYYSLAKTAPGGIYEFLLQRDVEPSHIVSQTSIKNLDLIQSNDPSNNVSHMLRNAPDGSIRFSHLIKSINNYDVIVIDTRGTRDITVDMSVLAADILFCPILPQILSAKEFIRGTIGMYQDLQTFESFGFKLPPLKAIANGVDNTNDVKFVMQKLHTLFANTFDESKTLLDFSIPYHVAYREAVTYALPVYRHSAVEYPVMQQLCC | not soluble
18 | MSLRFGNRKLRQQQALQYELEKNKAELEEYREELVSHFARSAELLDTMAHDYRQLYQHMAKSSSSLLPEMSAESNPFRNRLAESEASNDQAPVQMPRDYSEGASGLLRSGAKRDEGHHHHHH | not soluble
19 | MPTKGRVFVLGHSQDKDCVSRETGRRTTSITVPRDKCGVETVQHGKGAGYTSSVNIVISFHDKFLTKVDRAYNITCLYAPTGDVVSYALTVQPSLLKDIQVLAEQPSCEYEVFDVRTRRPAEIVHVNAPLEHVWTCDGTNLDLFCMTVHDCVINEGKSKRRSKIIDSEGCSLDTTRLPNLRYENNKLSARVMSKAFRFGDDVAVEFECNVRLDLRNGTSCPRPRC | not soluble
20 | MGSDKIHHHHHHMINKHVISEKIKKAIVEANIKINPEVEEIIERYEGPFSDIIKENYRVSKEEKLPLCQDTGIVEFFVFIGHEVKLEEPIEETLNRAVGEVYSEYPFRYSVVSDPLFERINTGTNTPAIVHIFQVKGKSLEIRFLVKGGGSENLTVLRMMTPTSDVEKVKEFVIEHIKEHGAKACPPLHVGIGIGGTADKALLLSKLALTKSFKERNKDPKYAGLEKELEKELNFLGIGFQGLGKGITVYSVHIEHFPTHIATLPVAVSVDCYLCRRGKVTFED | not soluble
21 | MCFINLRSVADTINTQTRRITMFTYYQAENSTAEPALVNAIEQGLRAQHGVVTEDDILMELTKWVEASDNDILSDIYQQTINYVVSGQHPTLLEHHHHHH | not soluble
22 | MNIDTREITLEPADNARLLSLCGPFDDNIKQLERRLGIEINRRDNHFKLTGRPICVTAAADILRSLYVDTAPMRGQIQDIEPEQIHLAIKEARVLEQSAESVPEYGKAVNIKTKRGVIKPRTPNQAQYIANILDHDITFGVGPAGTGKTYLAVAAAVDALERQEIRRILLTRPAVEAGEKLGFLPGDLSQKVDPYLRPLYDALFEMLGFEKVEKLIERNVIEVAPLAYMRGRTLNDAFIILDESQNTTIEQMKMFLTRIGFNSKAVITGDVTQIDLPRNTKSGLRHAIEVLADVEEISFNFFHSEDVVRHPVVARIVNAYEAWEEAEQKRKAALAAERKREEQEQK | soluble
